Source: paper PMC6055799

Biological target: GFP-RTN1 (reticulon RTN1 fused to GFP; FRET donor) (Arabidopsis)
Assay: FRET or BRET; FRET-FLIM (two-photon microscope): donor GFP-RTN1 and RFP-tagged acceptor coinfiltrated into N. tabacum leaf epidermal cells, measured after 48 h in low-mobility ER continuous with the nuclear envelope; donor lifetime compared with GFP-RTN1 alone

Molecule: AtLNP2-RFP (Arabidopsis Lunapark 2, splice variant AtLNP2.1, fused to RFP; FRET acceptor) (natural protein)
- reduction of the donor (GFP-RTN1) fluorescence lifetime: 0.2 ns

B1: AtLNP1-RFP (Arabidopsis Lunapark 1 fused to RFP; FRET acceptor) (natural protein)
chain: MAVGEKEHEGTVVESGGEKNDSAVVLSASGEKKTTKRKGLFSRLWNAIFRVRGDDFEKRLKNISKEEATVRNRMKRRSITRRNFIRNLIAFSVFFEVIAVSYAIMTTRDEDLDWKLRSFRILPMFLLPAVAFLLYSSLVGFWRMCDRRDQHTLEKLQAEMLGKINELKERTNYYITQQLIQRYDPDPAAKAAAATVLASKLGAESGLKVFVGDESQLEPTAGKNNAKHSGGLRNRKQTNTRGNSAETTPIHHSDNESNHSGTSERITGTEQNQQMVFEHYNPQEYAAHDGSWISRIAALLVGEDPSQSYALICGNCRMHNGLARKEDFPYITYYCPHCRALNKPKHSEEHSLIAPADTLPKVSLKPMESEVINSSSSTSERGNSPIPLLHTPEIVEEVPETAENETPN
- reduction of the donor (GFP-RTN1) fluorescence lifetime: 0.2 ns
